Laboratory results from US20080193373A1.

What was measured:
[1] = target: SA-B3/OmpA fusion protein (E. coli OmpA with streptavidin binding ligand peptide SA-B3 inserted) (Escherichia coli); test: magnetic separation (µMACS column) of a mixed E. coli Top10 culture with streptavidin-coated iron nanoparticles; input mix was about 47% OmpA+/SA-B3+ and 53% OmpA+LUX+; counted as CFU on plates
[2] = target: SA-B3/OmpA fusion protein (E. coli OmpA with streptavidin binding ligand peptide SA-B3 inserted) (Escherichia coli); test: magnetic separation (µMACS column) of a mixed E. coli Top10 culture with streptavidin-coated iron nanoparticles; counted as CFU on plates

Chain of SA-B3/OmpA fusion protein (E. coli OmpA with streptavidin binding ligand peptide SA-B3 inserted) (Escherichia coli) (chain, as listed by the source limits assumed): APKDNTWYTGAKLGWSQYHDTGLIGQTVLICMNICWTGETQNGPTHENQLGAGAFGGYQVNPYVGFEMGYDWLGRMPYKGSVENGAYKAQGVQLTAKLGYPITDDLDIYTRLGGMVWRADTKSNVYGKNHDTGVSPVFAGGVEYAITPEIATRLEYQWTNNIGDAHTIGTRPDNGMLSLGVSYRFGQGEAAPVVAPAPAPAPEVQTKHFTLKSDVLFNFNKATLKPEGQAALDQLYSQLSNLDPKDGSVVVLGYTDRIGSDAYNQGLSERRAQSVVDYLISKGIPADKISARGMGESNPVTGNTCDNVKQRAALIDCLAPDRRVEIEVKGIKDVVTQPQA

Q: Which results are given for “Streptavidin-coated iron-nanoparticles (from UniProt P22629 37-163)”?
A: proportion of bacteria expressing SA-B3 after magnetic separation [1]: 92%; proportion of SA-B3-expressing bacteria lost on the columns and while washing [2]: 7%
